{"source": "paper PMC10204870", "about": "“Analysis of aptamer-target binding and molecular mechanisms by thermofluorimetric analysis and molecular dynamics simulation”", "binders": {"B1": {"name": "AP273 (ssDNA)", "DNA": "GTGACGCTCCTAACGCTGACTCAGGTGCAGTTCTCGACTCGGTCTTGATGTGGGTCCTGTCCGTCCGAACCAATC"}}, "biological_target": "T1, alpha-fetoprotein (AFP) (Homo sapiens, UniProt P02771 19-609)", "T1 sequence": "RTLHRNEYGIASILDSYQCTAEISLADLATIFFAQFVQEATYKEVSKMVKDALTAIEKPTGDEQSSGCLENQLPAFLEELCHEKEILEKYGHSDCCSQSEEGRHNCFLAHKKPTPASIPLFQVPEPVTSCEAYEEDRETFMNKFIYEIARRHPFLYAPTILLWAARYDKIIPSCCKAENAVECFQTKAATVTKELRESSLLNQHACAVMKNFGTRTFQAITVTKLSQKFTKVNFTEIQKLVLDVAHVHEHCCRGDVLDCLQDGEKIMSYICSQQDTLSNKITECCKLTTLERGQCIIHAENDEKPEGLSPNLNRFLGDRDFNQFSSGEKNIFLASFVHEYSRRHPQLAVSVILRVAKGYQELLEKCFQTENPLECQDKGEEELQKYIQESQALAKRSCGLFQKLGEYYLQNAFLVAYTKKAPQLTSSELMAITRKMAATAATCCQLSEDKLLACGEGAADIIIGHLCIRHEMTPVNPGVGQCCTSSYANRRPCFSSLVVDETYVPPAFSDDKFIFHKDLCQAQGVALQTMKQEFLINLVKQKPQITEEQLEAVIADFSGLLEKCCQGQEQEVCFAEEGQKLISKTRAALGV", "experiment": "thermofluorimetric analysis (EvaGreen melting curves); 1.25-80 nM and 1-5 nM aptamer; HEPES buffer with Na+, K+, Mg2+, Ca2+; 20 mM HEPES-Na, 120 mM NaCl, 4 mM KCl, 2 mM MgCl2, 1 mM CaCl2, pH 7.35 (aptamer diluent); 30 min at room temperature, then melt 4-80 C with EvaGreen; AFP stock", "settings": "protein: recombinant; label: EvaGreen dye (non-covalent)", "data": [{"binder": "B1", "values": [{"measurement": "binding result", "result": "binds"}]}]}
